Nine molecules from patent publication US20230192843A1 (TENEOBIO, published 2023) can be followed below.

The target in assay [1] is MSLN on HeLa cells (human) (UniProt Q13421). Briefly: flow cytometry dose curve on HeLa cells. (In general: A flow cytometer gives signals particle by particle.)
The target in assay [2] is T1, human MSLN expressed on CHO cells (human, UniProt Q13421 296-598).
T1 construct: whole, on cells; also called CHO-huMSLN
As to the kind of experiment: flow cytometry dose curve on CHO cells expressing human MSLN. On the procedure: Cell-binding dose curves for example anti-MSLN single domain antibodies described herein were performed using CHO cells expressing human MSLN (FIG. 1A), HeLa cells (FIG. 1B), and CHO-OFFtgt cells (FIG. 1C). The single domain antibodies were tested at a starting concentration of 150 nM, followed by 3-fold serial dilutions for an 8-point dose curve. All washes and dilutions of cells, antibodies, and reagents were performed using flow buffer (1X phosphate buffered saline (PBS), 1% bovine serum albumin (BSA), and 0.1% NaN₃). Cells were pelleted and resuspended at 1 × 10⁶ cells/mL in flow buffer. Then, 50 µL cells were combined with 50 µL of test antibody and incubated 30 minutes at 4° C., followed by two wash steps with flow buffer. Cells were then resuspended in 50 µL PE-conjugated secondary diluted to 1.25 µg/mL (Southern Biotech #2042-09) and incubated for 20 minutes at 4° C. After two wash steps, cells were resuspended in flow buffer and analyzed using a BD Celesta system. PE mean fluorescence intensity was plotted as a fold over background (cells incubated with secondary detection antibody only).
To determine cell binding EC50 values for example anti-MSLN single domain antibodies of the present disclosure, cell binding dose curves were performed on HeLa cells and CHO cells expressing human MSLN. […]

The target in assay [3] is T1, human MSLN expressed on CHO cells. Briefly: flow cytometry, antibody supernatant on CHO cells expressing human MSLN. The protocol: Pelleted CHO cells were resuspended in flow buffer (1X phosphate buffered saline (PBS), 1% bovine serum albumin (BSA), and 0.1% NaN₃) at 1.25 × 10⁶ cells/mL. Antibody containing supernatants were diluted 1:5 in flow buffer, and 40 µL cells plus 10 µL diluted antibody supernatant were incubated for 30 minutes at 4° C. Cells were washed with flow buffer and resuspended in 50 µL phycoerythrin (PE)-conjugated secondary antibody (Southern Biotech #2042-09) diluted in flow buffer to 1.25 µg/mL and incubated for 20 minutes at 4° C. After two wash steps, cells were resuspended in flow buffer and analyzed using a Guava easyCyte 8HT system. Table E1 summarizes the target binding activity of the anti-MSLN single domain antibodies as fold over background MFI signal.

Assay [4] deals with T2, recombinant human MSLN (R&D Systems, #3265-MS) (human, UniProt Q13421 296-580, limits assumed).
T2 construct: Bought protein; also called antigen
T2 sequence (Q13421 other isoform, or with tags, fused parts or gaps limits assumed): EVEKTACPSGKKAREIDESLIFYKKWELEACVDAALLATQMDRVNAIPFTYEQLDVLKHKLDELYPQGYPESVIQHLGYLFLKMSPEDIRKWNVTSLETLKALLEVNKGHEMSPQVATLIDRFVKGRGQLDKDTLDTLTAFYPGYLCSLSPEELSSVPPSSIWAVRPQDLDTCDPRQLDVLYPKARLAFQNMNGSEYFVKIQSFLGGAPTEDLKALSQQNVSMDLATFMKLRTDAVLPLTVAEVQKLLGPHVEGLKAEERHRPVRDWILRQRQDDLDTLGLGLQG
Briefly: BLI (Octet HTX), antibody on AHC sensor, antigen in solution, 1:1 model. On the procedure: Table E3 summarizes affinity and epitope bin information for example anti-MSLN single domain antibodies of the present disclosure. The affinity of each single domain antibody to recombinant human MSLN (R&D Systems, #3265-MS) was measured by Bio-layer interferometry (BLI) using an Octet HTX. AHC (Anti-hIgG Fc Capture) sensors were used to immobilize test antibody at 5 µg/mL. After baseline readings, sensors were dipped into antigen solutions (starting at 500 nM followed by a 7-point, 2-fold dilution series). Association and dissociation were measured for 180 and 240 seconds respectively. Data were analyzed with Octet Data Analysis v11.0 HT (ForteBio) using a standard 1:1 binding model. Epitope bins for the single domain antibodies were determined by an in-tandem competition BLI binding experiment using an Octet HTX. The antigen (5 µg/mL) was loaded on the sensor Ni-NTA sensor followed by a baseline in kinetic buffer. The antigen coated sensor was then dipped into a saturating concentration Antibody 1. A second baseline was now set for 300 sec. Then the antigen-antibody 1 complex was dipped into Antibody 2 solution for 180 sec and then allowed to dissociate.

Chain of MSLN on HeLa cells (human) (Q13421 other isoform, or with tags, fused parts or gaps limits assumed): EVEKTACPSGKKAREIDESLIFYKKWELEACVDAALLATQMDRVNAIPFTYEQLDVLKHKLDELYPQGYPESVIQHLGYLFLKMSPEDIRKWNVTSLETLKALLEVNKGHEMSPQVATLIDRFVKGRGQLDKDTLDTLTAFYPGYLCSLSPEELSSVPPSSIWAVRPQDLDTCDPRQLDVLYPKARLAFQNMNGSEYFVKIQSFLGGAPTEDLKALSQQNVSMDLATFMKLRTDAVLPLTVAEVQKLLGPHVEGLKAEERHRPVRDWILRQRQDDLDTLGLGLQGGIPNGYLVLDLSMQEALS

B1: anti-MSLN single domain antibody clone 394556 (VHH)
VHH: QLQLQESGPGLVKPSETLSLTCTVSGGSISNSYYWGWIRQPPGKGLEWIGSIYHSGNTYYNPSLKSRVTISVDTSKNQFSLKLSSVTAADTAVYYCVTQDGVGATTTEEYWGQGTLVTVSS
notes: Human VH single domain antibody; It was captured on anti-hIgG Fc (AHC) sensors, so it apparently carried a human Fc
As for B1, the values for the EC50 in assay [1] and in assay [2] were 2.5 nM and 2.9 nM, respectively. Also, in assay [3], the “fold over background MFI signal” value was found to be 540 fold over background. The Kd in assay [4] amounted to 90.4 nM.

B2: anti-MSLN single domain antibody clone 392026 (VHH)
VHH: QLQLQESGPGLVKPSETLSLTCTVSGGSISNSYYWGWIRQPPGKGLEWIGSIYHSGNTYYNPSLKSRVTISVDTSKNQFSLKLSSVTAADTAVYYCTSQDGVGATTTEEYWGQGTLVTVSS
Consider B2, for which the EC50 in assay [1] was 9.8 nM.

B3: anti-MSLN single domain antibody clone 394567 (VHH)
VHH: QLQLQESGPGLVKPSETLSLTCTVSGGSISNSYYWGWIRQPPGKGLEWIGSIYYSGSIHYNPSLKSRVTISVDTSKNQFSLKLSSVTAADTAVYYCTSQDGVGATTTEEYWGQGTLVTVSS
notes: Human VH single domain antibody; Tested as antibody-containing supernatant
For B3, the “fold over background MFI signal” value in assay [3] came to 16.9 fold over background.

B4: anti-MSLN single domain antibody clone 394573 (VHH)
VHH: QLQLQESGPGLVKPSETLSLTCTVSGGSISNSYYWGWIRQPPGKGLEWIGSIYHSGNTYYNPSLKSRVTISVDTSKNQFSLKLSSVTAADTAVYYCATQNGVGATTTEEYWGQGTLVTVSS
notes: as for B3
On to B4, for which the “fold over background MFI signal” value in assay [3] amounted to 194 fold over background.

B5: anti-MSLN single domain antibody clone 394607 (VHH)
VHH: QLQLQESGPGLVKPSETLSLTCTVSGGSISNSYYWGWIRQPPGKGLEWIGSIYYSGSTYYNPSLKSRVTISVDTSKNQFSLSLNSVTAADTAVYYCATQDGVGATTTEEYWGQGTLVTVSS
notes: as for B3
In the case of B5, the “fold over background MFI signal” value in assay [3] was 141 fold over background.

B6: anti-MSLN single domain antibody clone 394610 (VHH)
VHH: QLQLQESGPGLVKPSETLSLTCTVSGGSISSSYYWGWIRQPPGKGLEWIGSIYHSGNTYYNPSLKSRVTISVDTSKNQFSLKLSSVTAADTAVYYCTSQDGVGATTTEEYWGQGTLVTVSS
notes: as for B3
Take B6: in assay [3], the “fold over background MFI signal” value is 78 fold over background.

B7: anti-MSLN single domain antibody clone 394606 (VHH)
VHH: QLQLQESGPGLVKPSETLSLTCTVSGGSISSSYYWGWIRQPPGKGLEWIGSIYHSGNTYYNPSLKSRVTISVDTSKNQFSLKLSSVTAADTAVYYCATQNGVGATTTEEYWGQGTLVTVSS
notes: as for B3
Take B7: in assay [3], the “fold over background MFI signal” value is 87.3 fold over background.

B8: anti-MSLN single domain antibody clone 394582 (VHH)
VHH: QLQLQESGPGLVKPSETLSLTCTVSGGSISNSYYWGWIRQPPGKGLEWIGSIYHSGNTYYNPSLKSRVTISVDTSKNQFSLKLSSVTAADTAVYYCTTQNGVGATTTEEYWGQGTLVTVSS
notes: Human VH single domain antibody; It was captured on anti-hIgG Fc sensors
B8: the EC50 in assay [1] is 1.3 nM; in assay [2] it was 2.2 nM. For the same molecule, the “fold over background MFI signal” value in assay [3] was 367 fold over background. Further, the Kd in assay [4] was found to be 220 nM.

B9: anti-MSLN single domain antibody clone 394541 (VHH)
VHH: QLQLQESGPGLVKPSETLSLTCTVSGGSISNSYYWGWIRQPPGKGLEWIGSIYHSGNTYYNPSLKSRVTMSVDTSKNQFSLKLSSVTAADTAVYYCTSQDGVGATTTEEYWGQGTLVTVSS
notes: as for B8
Turning to B9, the “fold over background MFI signal” value in assay [3] was 422 fold over background. The Kd in assay [4] came to 3800 nM.

The EC50 is the concentration at which the effect is half-maximal. Read a low EC50 as a more potent agent. As a reminder, the Kd is the free concentration of one partner at which half of the binding sites on the other are occupied at equilibrium, for simple one-to-one binding.
